Experimental data reported in US9157067B2, “Pluripotent cells from mammalian late epiblast layer” (priority 2006, dated 2015).

Legend:
Rat EpiSCs = test: Oct-4 immunostaining of rat EpiSCs grown in supplemented CDM; format: cell-based; details: after one week in CDM; 5B431542 10 uM; BMP4 10 ng/ml + 5B431542 10 uM; Activin 10 ng/ml + Noggin 100 ng/ml
Description: hESCs, mouse ESCs or EpiSCS were fixed for 20 minutes at 4° C. in 4% paraformaldehyde (PFA) and then washed three times in PBS. Cells were incubated for 20 minutes at room temperature in PBS containing 10% goat serum (Serotec) and subsequently incubated over night at 4° C. with primary antibody diluted in 1% goat serum in PBS as follows: SSEA-3 (1:100, Santa Cruz), SSAE-1 (1:25, gift from PW Andrews), Tra-1-60 (1:100, Santa CruZ), Oct-4 (1:100, SantaCruz), Sox2 (1:100, Abeam ab15830), Nanog (1:100, Abeam), Blirnpl (Abeam). Cells were then washed three times in PBS and incubated with fluorescein-Isothiocyanate-conjugated anti-mouse IgG or IgM (Sigma 1:200 in 1% goat serum in PBS) or rat IgM (Jackson laboratory 1:300 in goat serum in PBS) or rabbit IgG (Jackson laboratory 1:200 in donkey serum in PBS) for two hours at room temperature. Unbound secondary antibody was removed by 3 washes in PBS. Hoechst 33258 was added to the first wash (Sigma 1:10000).
Rat EpiSCs were grown in CDM supplemented in the presence of Activin (10 ng/ml), 5B431542 (10 uM), BMP4 10 ng/ml+5B431542 (10 uM) or Activin (10 ng/ml)+Noggin (IOOng/ml). After one week, the expression of the pluripotency marker Oct-4 was analysed using immunostaining. […] Similar results were obtained with mouse EpiSCs.

rat epiblast layers = test: Derivation of EpiSC lines from rat epiblast layers; format: cell-based
Text: The hypothesis that Activin and FGF signalling in pluripotency are conserved in mammalian development is supported by the ability of Activin/Nodal signalling to maintain long-term pluripotency of both human ESCs and mouse EpiSCs. As a further test of this hypothesis, we attempted to derive EpiSCs from rats, a species from which embryonic stem cell derivation has been problematic. Following the method we established in the mouse, epiblast layers were dissected from rat embryos at pre-gastrula stages (E 7.5-8.5) and grown on fibronectin-coated or FBS coated plates in CDM supplemented with Activin and FGF. […] Nevertheless, four EpiSC lines were derived out of 14 embryos of the Wistar strain and 1 EpiSC line was derived out of 20 embryos from the Sprague-Dawley strain using CDM supplemented with Activin alone.

[1] = Rat Sprague-Dawley, 8.5 d.p.c, 37° C., fibro

B1: Noggin: natural BMP inhibitor (protein, UniProt Q13253 28-232, looked up)
Noggin: QHYLHIRPAPSDNLPLVDLIEHPDPIFDPKEKDLNETLLRSLLGGHYDPGFMATSPPEDRPGGGGGAAGGAEDLAELDQLLRQRPSGAMPSEIKGLEFSEGLAQGKKQRLSKKLRRKLQMWLWSQTFCPVLYAWNDLGSRFWPRYVKVGSCFSKRSCSVPEGMVCKPSKSVHLTVLRWRCQRRGGQRCGWIPIQYPIISECKCSC
B1 was tested, and the “expression of the pluripotency marker Oct-4” value (Rat EpiSCs) was “did not decrease expression of Oct-4”.

B2: Activin: activin agonist growth factor, dimeric polypeptide stimulating the Activin/Nodal pathway (protein, UniProt P08476 311-426, looked up)
Inhibin beta A chain: GLECDGKVNICCKKQFFVSFKDIGWNDWIIAPSGYHANYCEGECPSHIAGTSGSSLSFHSTVINHYRMRGHSPFANLKSCCVPTKLRPMSMLYYDDGQNIIKKDIQNMIVEECGCS
In the case of B2, the Lines derived (rat epiblast layers; [1]) is reported as 1, the Rate % (rat epiblast layers; [1]) is reported as 5% and the Rate % (rat epiblast layers; Rat Water (Wistar), 8.5 d.p.c, 38° C., FCS) is reported as 35%.

B3: FGF4: growth factor added to rat epiblast cultures (protein, UniProt P08620 31-206, looked up)
Fibroblast growth factor 4: APTAPNGTLEAELERRWESLVALSLARLPVAAQPKEAAVQSGAGDYLLGIKRLRRLYCNVGIGFHLQALPDGRIGGAHADTRDSLLELSPVERGVVSIFGVASRFFVAMSSKGKLYGSPFFTDECTFKEILLPNNYNAYESYKYPGMFIALSKNGKTKKGNRVSPTMKVTHFLPRL
With B3 the “differentiation of early epiblast cultures” value (rat epiblast layers; addition to CDM supplemented with Activin) was “induced differentiation”.
